Measured values from patent US20200040059A1.

What was measured:
CTLA4 (human) = CTLA4 (human) (UniProt P16410); test: flow cytometry on HEK293 cells transfected with CTLA4
PD-L1 (human) = PD-L1 (human) (UniProt Q9NZQ7); test: flow cytometry on HEK293 cells transfected with PD-L1
[1] = molecular target: human CD28, full-length, expressed on transfected Expi293 cells (human) (UniProt P10747); test: flow cytometry on CD28-expressing Expi293 cells
CD112R (human) = CD112R (human) (UniProt Q6DKI7); test: flow cytometry, cells expressing target, 25 nM
CD112R (human), sequence (Q6DKI7 whole entry): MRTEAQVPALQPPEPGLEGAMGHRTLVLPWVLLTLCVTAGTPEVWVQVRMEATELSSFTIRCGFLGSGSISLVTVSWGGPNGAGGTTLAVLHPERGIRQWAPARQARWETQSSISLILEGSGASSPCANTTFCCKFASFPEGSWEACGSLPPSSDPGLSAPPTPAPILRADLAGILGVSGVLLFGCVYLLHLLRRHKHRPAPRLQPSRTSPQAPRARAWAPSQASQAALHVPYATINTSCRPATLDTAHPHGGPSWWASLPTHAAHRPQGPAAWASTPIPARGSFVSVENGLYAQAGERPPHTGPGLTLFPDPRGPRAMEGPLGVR

CD96 = molecular target: T1, CD96 (UniProt P40200); test: flow cytometry, cells expressing target, 25 nM
T1 sequence (looked up): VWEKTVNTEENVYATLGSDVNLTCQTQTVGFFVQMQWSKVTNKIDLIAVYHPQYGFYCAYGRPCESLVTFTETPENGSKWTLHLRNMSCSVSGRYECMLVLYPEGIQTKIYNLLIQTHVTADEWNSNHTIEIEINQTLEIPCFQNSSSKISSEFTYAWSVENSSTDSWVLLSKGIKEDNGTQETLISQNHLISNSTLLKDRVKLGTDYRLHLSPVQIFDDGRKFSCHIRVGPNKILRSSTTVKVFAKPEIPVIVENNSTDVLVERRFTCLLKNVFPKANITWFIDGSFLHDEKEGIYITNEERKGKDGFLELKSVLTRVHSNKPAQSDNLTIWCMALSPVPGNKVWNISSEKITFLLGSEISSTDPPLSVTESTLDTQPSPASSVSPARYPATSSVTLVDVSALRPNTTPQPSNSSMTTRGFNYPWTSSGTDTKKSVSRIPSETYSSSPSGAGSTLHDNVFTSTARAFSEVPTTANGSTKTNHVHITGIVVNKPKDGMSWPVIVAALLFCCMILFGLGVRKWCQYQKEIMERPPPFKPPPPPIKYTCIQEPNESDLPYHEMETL

TIGIT (human) = molecular target: T2, TIGIT (human) (UniProt Q495A1); test: flow cytometry, cells expressing target, 25 nM
T2 sequence: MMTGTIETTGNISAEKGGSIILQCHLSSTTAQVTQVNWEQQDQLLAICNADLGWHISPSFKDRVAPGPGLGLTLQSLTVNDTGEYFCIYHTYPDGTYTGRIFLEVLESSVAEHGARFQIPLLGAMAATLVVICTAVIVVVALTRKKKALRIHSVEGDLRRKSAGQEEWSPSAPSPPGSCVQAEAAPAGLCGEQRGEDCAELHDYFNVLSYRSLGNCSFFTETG

CD226 (human) = molecular target: T3, CD226 (human) (UniProt Q15762); test: flow cytometry, cells expressing target, 25 nM
T3 sequence: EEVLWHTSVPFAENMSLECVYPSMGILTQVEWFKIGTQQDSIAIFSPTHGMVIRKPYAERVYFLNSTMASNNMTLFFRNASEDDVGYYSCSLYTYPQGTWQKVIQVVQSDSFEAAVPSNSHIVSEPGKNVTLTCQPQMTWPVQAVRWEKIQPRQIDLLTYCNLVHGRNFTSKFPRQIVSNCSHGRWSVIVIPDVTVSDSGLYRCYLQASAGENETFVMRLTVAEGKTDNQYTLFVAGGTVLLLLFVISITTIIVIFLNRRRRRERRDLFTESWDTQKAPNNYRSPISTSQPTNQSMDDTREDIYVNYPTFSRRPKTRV

CTLA4 (human), sequence (P16410 36-223 limits assumed): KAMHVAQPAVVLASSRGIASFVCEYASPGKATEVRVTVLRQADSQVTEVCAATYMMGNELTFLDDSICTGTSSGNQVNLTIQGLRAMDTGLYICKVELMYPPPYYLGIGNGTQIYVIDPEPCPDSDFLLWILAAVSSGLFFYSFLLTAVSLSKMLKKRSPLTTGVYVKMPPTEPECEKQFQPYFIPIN
PD-L1 (human), sequence (Q9NZQ7 19-290 limits assumed): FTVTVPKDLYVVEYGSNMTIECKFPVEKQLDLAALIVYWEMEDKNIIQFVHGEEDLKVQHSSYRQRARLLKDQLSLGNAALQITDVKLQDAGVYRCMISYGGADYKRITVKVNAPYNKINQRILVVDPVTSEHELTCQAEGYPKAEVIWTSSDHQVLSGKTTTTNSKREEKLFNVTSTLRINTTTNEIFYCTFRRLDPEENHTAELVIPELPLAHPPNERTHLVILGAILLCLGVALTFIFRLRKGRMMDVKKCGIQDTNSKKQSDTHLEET

Substance	MFI at 66.6 nM (CTLA4 (human))	MFI at 22.2 nM (PD-L1 (human))	MFI [1]	MFI at 25 nM (CD112R (human))	MFI at 25 nM (CD96)	MFI at 25 nM (TIGIT (human))	MFI at 25 nM (CD226 (human))
CD80 IgV-Fc E35D/M47I (from UniProt P33681 35-141) (Fc fusion)	354000 MFI	150000 MFI	–	–	–	–	–
CD80 IgV-Fc L70P/F92S (from UniProt P33681 35-141) (Fc fusion)	4040 MFI	6170 MFI	–	–	–	–	–
CD80 IgV-Fc M43I/C82R (from UniProt P33681 35-141) (Fc fusion)	3640 MFI	7400 MFI	–	–	–	–	–
CD80 IgV-Fc M47L/V68A (from UniProt P33681 35-141) (Fc fusion)	74200 MFI	–	–	–	–	–	–
CD80 IgV-Fc N55D/K86M (from UniProt P33681 35-141) (Fc fusion)	3540 MFI	5090 MFI	–	–	–	–	–
CD80 IgV-Fc V22L/M38V/M47T/A71D/L85M (from UniProt P33681 35-141) (Fc fusion)	175000 MFI	6140 MFI	–	–	–	–	–
CD80 variant M38V/T41D/M43I/W50G/D76G/V83A/K89E/T120S/T130A ECD-Fc fusion (from UniProt P33681 35-242)	–	–	5 MFI	–	–	–	–
CD155 variant IgV-Fc D8G, V9I, V11A, P18T, T26M, S52P, L79P, F91S, G92A, T107L, V115A (from UniProt P15151 24-139) (Fc fusion)	–	–	–	817 MFI	97800 MFI	52500 MFI	–
CD155 variant IgV-Fc P18F, E51V, S54G, Q60R, L79Q, E82G, S87T, M90I, F91S, G92R, T107M (from UniProt P15151 24-139) (Fc fusion)	–	–	–	1010 MFI	61800 MFI	46100 MFI	15700 MFI
CD155 variant IgV-Fc P18F, H40Q, T61K, Q62K, L79P, F91S, L104M, T107V (from UniProt P15151 24-139) (Fc fusion)	–	–	–	918 MFI	–	108000 MFI	853 MFI
CD155 variant IgV-Fc P18S, H59N, V75A, L79P, A81T, F91S, L104M, T107M (from UniProt P15151 24-139) (Fc fusion)	–	–	–	915 MFI	759 MFI	800 MFI	676 MFI
CD155 variant IgV-Fc P18S, K70R, L79P, F91S, G111R (from UniProt P15151 24-139) (Fc fusion)	–	–	–	854 MFI	1180 MFI	16200 MFI	793 MFI
CD155 variant IgV-Fc P18T, G19D, M36T, S54N, L79P, L83Q, F91S, T107M, F108Y (from UniProt P15151 24-139) (Fc fusion)	–	–	–	1280 MFI	726 MFI	905 MFI	748 MFI
CD155 variant IgV-Fc P18T, M55L, T61R, L79P, F91S, V106I, T107M (from UniProt P15151 24-139) (Fc fusion)	–	–	–	827 MFI	57900 MFI	133000 MFI	1910 MFI
CD155 variant IgV-Fc P18T, T39S, S52P, S54R, L79P, F91S, T107M (from UniProt P15151 24-139) (Fc fusion)	–	–	–	1040 MFI	1220 MFI	45900 MFI	744 MFI
CD155 variant IgV-Fc P18T, W46C, H49R, S65A, S67V, A76T, L79P, S87T, L104M (from UniProt P15151 24-139) (Fc fusion)	–	–	–	803 MFI	717 MFI	918 MFI	640 MFI
CD155 variant IgV-Fc V9A, P18S, M36T, S65G, L79P, F91S, L104T, G111R, S112I (from UniProt P15151 24-139) (Fc fusion)	–	–	–	886 MFI	–	92500 MFI	989 MFI
